According to US10052415B2, “Tropoelastin for promoting endothelial cell adhesion or migration” (University of Utah Research Foundation, priority 2005, dated 2018):

Key:
Assay type in all cases: cell-based
[1] = test system: human aortic endothelial cells (HuAEC); test: Boyden chamber migration assay, HuAEC; settings: FIG. 3
Method: Migration of HuAECs to BSA, fibronectin, and recombinant tropoelastin was measured.
We assayed the hexamer VGVAPG (SEQ ID No. 5). This hexameric sequence is repeated multiple times within the full length tropoelastin protein. […] We additionally assayed a 17 residue C-terminal fragment of the tropoelastin protein. This 17 amino acid residue is depicted in SEQ ID NO: 6 (IFPGGACLGKACGRKRK).
(§1) Briefly, 16 h before the assay, 70% confluent 75 cm^2 flasks of human melanoma A2058 cell (ATCC, passage 3-12) or human aortic endothelial cells (HAEC; Cambrex, passage 4-7) were kept in basal media (dMEM+0.1% BSA, or EBM-2+1% FCS, respectively). Cells were lifted with 0.25% Trypsin/1 mM EDTA, diluted in 0.5% BSA (dMEM) and washed 3 times in basal media (dMEM+0.1% BSA) or (EBM-2+0.1% FCS,) and recovered in suspension at working density (2×10^6/ml for A2058 or 1.5×10^6 HAEC) for 1 h at 37° C. (5% CO2). For migration-inhibition assays, the cells were preincubated during the recovery period for 30 minutes in 25 μg/ml anti-integrin antibodies (Chemicon, Temecula, Calif.) or control IgG (Jackson ImmunoResearch, Inc.). All migration assays were performed in triplicate in a 48-well Boyden chamber apparatus (NeuroProbe, Cabin John, Md.). The recovered cells were added to the bottom chambers in a volume of 30 μl. The wells were overlayed with an 8 μm-pore polycarbonate membrane (NeuroProbe, Cabin John, Md.) and coated with 100 μg/ml Rat tail collagen (Trevigen, Gaithersburg, Md.) for A2058 cells or acetylated 1% gelatin from porcine skin (Sigma, St. Louis, Mo.) for HAEC. The apparatus was assembled and stored inverted at 37° C. (5 CO2) for a 2 h adhesion-period. The apparatus was re-inverted and 52 μl of the chemoattractants, 10 mg/ml Fibronectin, 200 ng/ml Tropoelastin, 10 μM elastin-derived peptides; VGVAPG (SEQ ID No. 5), and IFPGGACLGKACGRKRK (SEQ ID No. 6 (Cterm peptide) or 0.1% BSA/dMEM (diluent, random migration control), were added to the upper chambers and the migration was allowed to proceed for 2 h in a humidified incubator at 37° C. (5% CO2). The membranes were then removed, fixed in methanol, stained with a Hema 3 stain set (Fisher Scientific, Pittsburgh, Pa.) and mounted migrated-side down to a 50×75 mm glass slide. Before 90% mounting medium (in xylenes) was applied, the non-migrated cells were removed from the exposed, non-migrated face of the membrane with a moistened swab. Readings represent the number of cells migrating through the membrane (the sum of two high power X 20 fields/well, averaged for each sextuplicate-well set).

[2] = test system: A2058 human melanoma cells; test: Boyden chamber migration assay, A2058 cells; settings: FIG. 5
Method: as §1, with “The apparatus was re-inverted and 52 μl of the chemoattractants, 10 mg/ml Fibronectin, 200 ng/ml Tropoelastin, 10 μM elastin-derived peptides; VGVAPG (SEQ ID No. 5), and IFPGGACLGKACGRKRK (SEQ ID No. 6 (Cterm peptide) or 0.1% BSA/dMEM (diluent, random migration control), were added to the upper chambers and the migration was allowed to proceed for 2 h in a humidified incubator at 37° C. (5% CO2). The membranes were then removed, fixed in methanol, stained with a Hema 3 stain set (Fisher Scientific, Pittsburgh, Pa.) and mounted migrated-side down to a 50×75 mm glass slide. Before 90% mounting medium (in xylenes) was applied, the non-migrated cells were removed from the exposed, non-migrated face of the membrane with a moistened swab.” left out

[3] = test system: human microvessel endothelial cells (HMVEC); test: Adhesion assay on coated stainless steel disks, HMVEC; settings: FIG. 6
Excerpt: Given that an important aspect of the present invention is the prevention of restenosis and thrombosis, we conducted experiments to address whether endothelial cells would adhere to metal devices that had been coated with tropoelastin. Briefly, tropoelastin was covalently conjugated to a stainless steel disk approximately 6 mm in diameter. Tropoelastin was linked to the disk surface using an intermediate polysaccharide molecule. An exemplary process for covalently linking tropoelastin to the disk surface, and the process used here, is used in the manufacture of Genous Bio-Engineered R Stents. These disks provided ample surface area for microscopic imaging. Disks were also similarly coated with anti-CD34 antibody and with polysaccharide vehicle alone. Stents coated with anti-CD34 antibody using a similar process (Genous Bio-Engineered R Stents) are currently in human clinical trials and have promise to promote capture of circulating endothelial cells and endothelial progenitor cells and to accelerate endothelialization.
Human microvessel endothelial cells (HMVEC) were cultured with these coated disks, and adhesion of the cells to the coated disks was assayed. […]

B1: tropoelastin: recombinant human tropoelastin lacking native signal sequence, 10× His tag and Factor Xa site on N-terminus, 706 amino acid residues (SEQ ID NO: 4) (protein, listed as Homo sapiens)
chain: MGHHHHHHHHHHSSGGIEGRGGVPGAIPGGVPGGVFYPGAGLGALGGGALGPGGKPLKPVPGGLAGAGLGAGLGAFPAVTFPGALVPGGVADAAAAYKAAKAGAGLGGVPGVGGLGVSAGAVVPQPGAGVKPGKVPGVGLPGVYPGGVLPGARFPGVGVLPGVPTGAGVKPKAPGVGGAFAGIPGVGPFGGPQPGVPLGYPIKAPKLPGGYGLPYTTGKLPYGYGPGGVAGAAGKAGYPTGTGVGPQAAAAAAAKAAAKFGAGAAGVLPGVGGAGVPGVPGAIPGIGGIAGVGTPAAAAAAAAAAKAAKYGAAAGLVPGGPGFGPGVVGVPGAGVPGVGVPGAGIPVVPGAGIPGAAVPGVVSPEAAAKAAAKAAKYGARPGVGVGGIPTYGVGAGGFPGFGVGVGGIPGVAGVPGVGGVPGVGGVPGVGISPEAQAAAAAKAAKYGVGTPAAAAAKAAAKAAQFALLNLAGLVPGVGVAPGVGVAPGVGVAPGVGLAPGVGVAPGVGVAPGVGVAPGIGPGGVAAAAKSAAKVAAKAQLRAAAGLGAGIPGLGVGVGVPGLGVGAGVPGLGVGAGVPGFGAVPGALAAAKAAKYGAAVPGVLGGLGALGGVGIPGGVVGAGPAAAAAAAKAAAKAAQFGLVGAAGLGGLGVGGLGVPGVGGLGGIPPAAAAKAAKYGVAARPGFGLSPIFPGGACLGKACGRKRK
level of HuAEC migration relative to comparator [1]: comparable to that of fibronectin | migration of HuAECs ([1]; 200 ng/ml Tropoelastin, 10 μM peptides, BSA control): promoted endothelial cell migration | level of A2058 migration compared among tropoelastin and fragments [2]: promoted migration of A2058 cell at comparable levels | HMVEC adhesion to coated disks relative to anti-CD34 antibody coated disks [3]: comparable to the adhesion of HMVECs to stainless steel disks coated with an anti-CD34 antibody | adhesion of HMVEC to coated stainless steel disks ([3]; protein covalently conjugated to 6 mm disk): promoted adhesion of human endothelial cells to a metal device
